Starred links: 1 amine or outer side, 2 acyl side, 3 side chain; linkers in the order of their positions; H or OH if unused. Non-standard residues stand in square brackets, D forms with d. Groups on a side chain read outwards from the residue. No end group written: not given here. *: point of attachment. γGlu = O=C(O)[C@H](CCC(=O)[*:2])N[*:1]; Palmitoyl = CCCCCCCCCCCCCCCC(=O)*
T1: anti-target CRF1R receptor (UniProt P34998 24-415, limits assumed)
T1 sequence (looked up): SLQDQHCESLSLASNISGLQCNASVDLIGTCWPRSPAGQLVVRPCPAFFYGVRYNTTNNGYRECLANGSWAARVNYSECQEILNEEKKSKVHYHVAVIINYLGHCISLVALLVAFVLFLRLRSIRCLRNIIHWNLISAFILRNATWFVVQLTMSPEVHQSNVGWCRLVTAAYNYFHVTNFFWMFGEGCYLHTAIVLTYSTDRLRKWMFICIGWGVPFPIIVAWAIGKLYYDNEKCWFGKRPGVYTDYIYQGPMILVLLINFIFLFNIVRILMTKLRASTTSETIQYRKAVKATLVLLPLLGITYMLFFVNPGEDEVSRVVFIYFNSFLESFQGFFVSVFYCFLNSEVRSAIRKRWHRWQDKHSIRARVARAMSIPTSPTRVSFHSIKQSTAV

B1: peptide of SEQ ID NO: 10 (peptide)
peptide: FTLSLDVPTKIK([γGlu-Palmitoyl])QKLLKQEKQKKQRQKAKTNKQILEQV-NH2
modifications: N-terminus assumed
SMILES: CCCCCCCCCCCCCCCC(=O)N[C@@H](CCC(=O)NCCCC[C@H](NC(=O)[C@@H](NC(=O)[C@H](CCCCN)NC(=O)[C@@H](NC(=O)[C@@H]1CCCN1C(=O)[C@@H](NC(=O)[C@H](CC(=O)O)NC(=O)[C@H](CC(C)C)NC(=O)[C@H](CO)NC(=O)[C@H](CC(C)C)NC(=O)[C@@H](NC(=O)[C@@H](N)Cc1ccccc1)[C@@H](C)O)C(C)C)[C@@H](C)O)[C@@H](C)CC)C(=O)N[C@@H](CCC(N)=O)C(=O)N[C@@H](CCCCN)C(=O)N[C@@H](CC(C)C)C(=O)N[C@@H](CC(C)C)C(=O)N[C@@H](CCCCN)C(=O)N[C@@H](CCC(N)=O)C(=O)N[C@@H](CCC(=O)O)C(=O)N[C@@H](CCCCN)C(=O)N[C@@H](CCC(N)=O)C(=O)N[C@@H](CCCCN)C(=O)N[C@@H](CCCCN)C(=O)N[C@@H](CCC(N)=O)C(=O)N[C@@H](CCCNC(=N)N)C(=O)N[C@@H](CCC(N)=O)C(=O)N[C@@H](CCCCN)C(=O)N[C@@H](C)C(=O)N[C@@H](CCCCN)C(=O)N[C@H](C(=O)N[C@@H](CC(N)=O)C(=O)N[C@@H](CCCCN)C(=O)N[C@@H](CCC(N)=O)C(=O)N[C@H](C(=O)N[C@@H](CC(C)C)C(=O)N[C@@H](CCC(=O)O)C(=O)N[C@@H](CCC(N)=O)C(=O)N[C@H](C(N)=O)C(C)C)[C@@H](C)CC)[C@@H](C)O)C(=O)O
B2: peptide of SEQ ID NO: 12 (peptide)
peptide: FTLSLDVPTKIK([γGlu-Palmitoyl])QKLLKQEKQRKQKQQAKTNAKILARV-NH2
modifications: N-terminus assumed
SMILES: CCCCCCCCCCCCCCCC(=O)N[C@@H](CCC(=O)NCCCC[C@H](NC(=O)[C@@H](NC(=O)[C@H](CCCCN)NC(=O)[C@@H](NC(=O)[C@@H]1CCCN1C(=O)[C@@H](NC(=O)[C@H](CC(=O)O)NC(=O)[C@H](CC(C)C)NC(=O)[C@H](CO)NC(=O)[C@H](CC(C)C)NC(=O)[C@@H](NC(=O)[C@@H](N)Cc1ccccc1)[C@@H](C)O)C(C)C)[C@@H](C)O)[C@@H](C)CC)C(=O)N[C@@H](CCC(N)=O)C(=O)N[C@@H](CCCCN)C(=O)N[C@@H](CC(C)C)C(=O)N[C@@H](CC(C)C)C(=O)N[C@@H](CCCCN)C(=O)N[C@@H](CCC(N)=O)C(=O)N[C@@H](CCC(=O)O)C(=O)N[C@@H](CCCCN)C(=O)N[C@@H](CCC(N)=O)C(=O)N[C@@H](CCCNC(=N)N)C(=O)N[C@@H](CCCCN)C(=O)N[C@@H](CCC(N)=O)C(=O)N[C@@H](CCCCN)C(=O)N[C@@H](CCC(N)=O)C(=O)N[C@@H](CCC(N)=O)C(=O)N[C@@H](C)C(=O)N[C@@H](CCCCN)C(=O)N[C@H](C(=O)N[C@@H](CC(N)=O)C(=O)N[C@@H](C)C(=O)N[C@@H](CCCCN)C(=O)N[C@H](C(=O)N[C@@H](CC(C)C)C(=O)N[C@@H](C)C(=O)N[C@@H](CCCNC(=N)N)C(=O)N[C@H](C(N)=O)C(C)C)[C@@H](C)CC)[C@@H](C)O)C(=O)O
B3: peptide of SEQ ID NO: 4 (peptide)
peptide: IVLSLDVPIGLK([γGlu-Palmitoyl])QKLLKQEKQEKEKQQAETNAKILAQV-NH2
modifications: N-terminus assumed
SMILES: CCCCCCCCCCCCCCCC(=O)N[C@@H](CCC(=O)NCCCC[C@H](NC(=O)[C@H](CC(C)C)NC(=O)CNC(=O)[C@@H](NC(=O)[C@@H]1CCCN1C(=O)[C@@H](NC(=O)[C@H](CC(=O)O)NC(=O)[C@H](CC(C)C)NC(=O)[C@H](CO)NC(=O)[C@H](CC(C)C)NC(=O)[C@@H](NC(=O)[C@@H](N)[C@@H](C)CC)C(C)C)C(C)C)[C@@H](C)CC)C(=O)N[C@@H](CCC(N)=O)C(=O)N[C@@H](CCCCN)C(=O)N[C@@H](CC(C)C)C(=O)N[C@@H](CC(C)C)C(=O)N[C@@H](CCCCN)C(=O)N[C@@H](CCC(N)=O)C(=O)N[C@@H](CCC(=O)O)C(=O)N[C@@H](CCCCN)C(=O)N[C@@H](CCC(N)=O)C(=O)N[C@@H](CCC(=O)O)C(=O)N[C@@H](CCCCN)C(=O)N[C@@H](CCC(=O)O)C(=O)N[C@@H](CCCCN)C(=O)N[C@@H](CCC(N)=O)C(=O)N[C@@H](CCC(N)=O)C(=O)N[C@@H](C)C(=O)N[C@@H](CCC(=O)O)C(=O)N[C@H](C(=O)N[C@@H](CC(N)=O)C(=O)N[C@@H](C)C(=O)N[C@@H](CCCCN)C(=O)N[C@H](C(=O)N[C@@H](CC(C)C)C(=O)N[C@@H](C)C(=O)N[C@@H](CCC(N)=O)C(=O)N[C@H](C(N)=O)C(C)C)[C@@H](C)CC)[C@@H](C)O)C(=O)O
B4: peptide of SEQ ID NO: 9 (peptide)
peptide: FTLSLDVPTKIK([γGlu-Palmitoyl])QKLLKQEKQKKQRQKAKTAKQILEQV-NH2
modifications: N-terminus assumed
SMILES: CCCCCCCCCCCCCCCC(=O)N[C@@H](CCC(=O)NCCCC[C@H](NC(=O)[C@@H](NC(=O)[C@H](CCCCN)NC(=O)[C@@H](NC(=O)[C@@H]1CCCN1C(=O)[C@@H](NC(=O)[C@H](CC(=O)O)NC(=O)[C@H](CC(C)C)NC(=O)[C@H](CO)NC(=O)[C@H](CC(C)C)NC(=O)[C@@H](NC(=O)[C@@H](N)Cc1ccccc1)[C@@H](C)O)C(C)C)[C@@H](C)O)[C@@H](C)CC)C(=O)N[C@@H](CCC(N)=O)C(=O)N[C@@H](CCCCN)C(=O)N[C@@H](CC(C)C)C(=O)N[C@@H](CC(C)C)C(=O)N[C@@H](CCCCN)C(=O)N[C@@H](CCC(N)=O)C(=O)N[C@@H](CCC(=O)O)C(=O)N[C@@H](CCCCN)C(=O)N[C@@H](CCC(N)=O)C(=O)N[C@@H](CCCCN)C(=O)N[C@@H](CCCCN)C(=O)N[C@@H](CCC(N)=O)C(=O)N[C@@H](CCCNC(=N)N)C(=O)N[C@@H](CCC(N)=O)C(=O)N[C@@H](CCCCN)C(=O)N[C@@H](C)C(=O)N[C@@H](CCCCN)C(=O)N[C@H](C(=O)N[C@@H](C)C(=O)N[C@@H](CCCCN)C(=O)N[C@@H](CCC(N)=O)C(=O)N[C@H](C(=O)N[C@@H](CC(C)C)C(=O)N[C@@H](CCC(=O)O)C(=O)N[C@@H](CCC(N)=O)C(=O)N[C@H](C(N)=O)C(C)C)[C@@H](C)CC)[C@@H](C)O)C(=O)O
B5: peptide of SEQ ID NO: 5 (peptide)
peptide: IVLSLDVPIGLK([γGlu-Palmitoyl])QKLLKQQRQRKERQQAETNARILARV-NH2
modifications: N-terminus assumed
SMILES: CCCCCCCCCCCCCCCC(=O)N[C@@H](CCC(=O)NCCCC[C@H](NC(=O)[C@H](CC(C)C)NC(=O)CNC(=O)[C@@H](NC(=O)[C@@H]1CCCN1C(=O)[C@@H](NC(=O)[C@H](CC(=O)O)NC(=O)[C@H](CC(C)C)NC(=O)[C@H](CO)NC(=O)[C@H](CC(C)C)NC(=O)[C@@H](NC(=O)[C@@H](N)[C@@H](C)CC)C(C)C)C(C)C)[C@@H](C)CC)C(=O)N[C@@H](CCC(N)=O)C(=O)N[C@@H](CCCCN)C(=O)N[C@@H](CC(C)C)C(=O)N[C@@H](CC(C)C)C(=O)N[C@@H](CCCCN)C(=O)N[C@@H](CCC(N)=O)C(=O)N[C@@H](CCC(N)=O)C(=O)N[C@@H](CCCNC(=N)N)C(=O)N[C@@H](CCC(N)=O)C(=O)N[C@@H](CCCNC(=N)N)C(=O)N[C@@H](CCCCN)C(=O)N[C@@H](CCC(=O)O)C(=O)N[C@@H](CCCNC(=N)N)C(=O)N[C@@H](CCC(N)=O)C(=O)N[C@@H](CCC(N)=O)C(=O)N[C@@H](C)C(=O)N[C@@H](CCC(=O)O)C(=O)N[C@H](C(=O)N[C@@H](CC(N)=O)C(=O)N[C@@H](C)C(=O)N[C@@H](CCCNC(=N)N)C(=O)N[C@H](C(=O)N[C@@H](CC(C)C)C(=O)N[C@@H](C)C(=O)N[C@@H](CCCNC(=N)N)C(=O)N[C@H](C(N)=O)C(C)C)[C@@H](C)CC)[C@@H](C)O)C(=O)O
B6: peptide of SEQ ID NO: 6 (peptide)
peptide: IVLSLDVPIGLK([γGlu-Palmitoyl])QKLLKQQRQRKERQQAEKNARILARV-NH2
modifications: N-terminus assumed
SMILES: CCCCCCCCCCCCCCCC(=O)N[C@@H](CCC(=O)NCCCC[C@H](NC(=O)[C@H](CC(C)C)NC(=O)CNC(=O)[C@@H](NC(=O)[C@@H]1CCCN1C(=O)[C@@H](NC(=O)[C@H](CC(=O)O)NC(=O)[C@H](CC(C)C)NC(=O)[C@H](CO)NC(=O)[C@H](CC(C)C)NC(=O)[C@@H](NC(=O)[C@@H](N)[C@@H](C)CC)C(C)C)C(C)C)[C@@H](C)CC)C(=O)N[C@@H](CCC(N)=O)C(=O)N[C@@H](CCCCN)C(=O)N[C@@H](CC(C)C)C(=O)N[C@@H](CC(C)C)C(=O)N[C@@H](CCCCN)C(=O)N[C@@H](CCC(N)=O)C(=O)N[C@@H](CCC(N)=O)C(=O)N[C@@H](CCCNC(=N)N)C(=O)N[C@@H](CCC(N)=O)C(=O)N[C@@H](CCCNC(=N)N)C(=O)N[C@@H](CCCCN)C(=O)N[C@@H](CCC(=O)O)C(=O)N[C@@H](CCCNC(=N)N)C(=O)N[C@@H](CCC(N)=O)C(=O)N[C@@H](CCC(N)=O)C(=O)N[C@@H](C)C(=O)N[C@@H](CCC(=O)O)C(=O)N[C@@H](CCCCN)C(=O)N[C@@H](CC(N)=O)C(=O)N[C@@H](C)C(=O)N[C@@H](CCCNC(=N)N)C(=O)N[C@H](C(=O)N[C@@H](CC(C)C)C(=O)N[C@@H](C)C(=O)N[C@@H](CCCNC(=N)N)C(=O)N[C@H](C(N)=O)C(C)C)[C@@H](C)CC)C(=O)O

What follows are binders tested against T1, anti-target CRF1R receptor (assay: cell-based or functional assay).

EC50[nM] 0% HSA (cAMP, CRF1R-overexpression CHO cells)	Emax (%) (cAMP, CRF1R-overexpression CHO cells)	Binder
> 1000 nM	10.2%	B1
> 1000 nM	41.8%	B2
> 1000 nM	17.4%	B3
> 1000 nM	14.9%	B4
> 1000 nM	37.4%	B5
588 nM	58.6%	IVLSLD[dV]PTKLK([γGlu-Palmitoyl])QKLLKQERQRKEREQAEKNARILARV-NH2 (not fully specified; printed as IVLSLDvPTKLK*QKLLKQERQRKEREQAEKNARILARV-NH2) [peptide of SEQ ID NO: 7]
830 nM	47.2%	B6
